Reference: IntAct's records for PubMed 22247544

B1: Corticotropin-releasing factor receptor 1 (Homo sapiens), P34998 (parent)
chain: MGGHPQLRLVKALLLLGLNPVSASLQDQHCESLSLASNISGLQCNASVDLIGTCWPRSPAGQLVVRPCPAFFYGVRYNTTNNGYRECLANGSWAARVNYSECQEILNEEKKSKVHYHVAVIINYLGHCISLVALLVAFVLFLRLRSIRCLRNIIHWNLISAFILRNATWFVVQLTMSPEVHQSNVGWCRLVTAAYNYFHVTNFFWMFGEGCYLHTAIVLTYSTDRLRKWMFICIGWGVPFPIIVAWAIGKLYYDNEKCWFGKRPGVYTDYIYQGPMILVLLINFIFLFNIVRILMTKLRASTTSETIQYRKAVKATLVLLPLLGITYMLFFVNPGEDEVSRVVFIYFNSFLESFQGFFVSVFYCFLNSEVRSAIRKRWHRWQDKHSIRARVARAMSIPTSPTRVSFHSIKQSTAV

Variants of: B1
Conditions: with GNAI2, P04899-1
Chain of GNAI2, P04899-1 (P04899 whole entry): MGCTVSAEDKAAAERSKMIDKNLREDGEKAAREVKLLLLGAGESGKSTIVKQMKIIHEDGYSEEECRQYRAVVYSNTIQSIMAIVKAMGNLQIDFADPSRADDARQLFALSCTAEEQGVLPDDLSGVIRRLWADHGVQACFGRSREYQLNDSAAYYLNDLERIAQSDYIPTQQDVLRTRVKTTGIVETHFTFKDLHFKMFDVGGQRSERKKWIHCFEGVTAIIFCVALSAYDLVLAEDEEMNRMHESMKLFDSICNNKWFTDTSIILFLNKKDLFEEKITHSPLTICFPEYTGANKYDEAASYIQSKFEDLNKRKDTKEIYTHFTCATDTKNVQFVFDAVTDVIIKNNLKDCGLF

effect of a mutation on the interaction | Variant
decreasing interaction strength | MGGHPQLRLVKALLLLGLNPVSASLQDQHCESLSLASNISGLQCNASVDLIGTCWPRSPAGQLVVRPCPAFFYGVRYNTTNNGYRECLANGSWAARVNYSECQEILNEEKKSKVHYHVAVIINYLGHCISLVALLVAFVLFLRLRSIRCLRNIIHWNLISAFILRNATWFVVQLTMSPEVHQSNVGWCRLVTAAYNYFHVTNFFWMFGEGCYLHTAIVLTYSTDRLRKWMFICIGWGVPFPIIVAWAIGKLYYDNEKCWFGKRPGVYTDYIYQGPMILVLLINFIFLFNIVRILMTKLRASTTSETIQYRKAVAATLVLLPLLGITYMLFFVNPGEDEVSRVVFIYFNSFLESFQGFFVSVFYCFLNSEVRSAIRKRWHRWQDKHSIRARVARAMSIPTSPTRVSFHSIKQSTAV [K314A]
decreasing interaction strength | MGGHPQLRLVKALLLLGLNPVSASLQDQHCESLSLASNISGLQCNASVDLIGTCWPRSPAGQLVVRPCPAFFYGVRYNTTNNGYRECLANGSWAARVNYSECQEILNEEKKSKVHYHVAVIINYLGHCISLVALLVAFVLFLRLRSIRCLRNIIHWNLISAFILRNATWFVVQLTMSPEVHQSNVGWCRLVTAAYNYFHVTNFFWMFGEGCYLHTAIVLTYSTDRLRKWMFICIGWGVPFPIIVAWAIGKLYYDNEKCWFGKRPGVYTDYIYQGPMILVLLINFIFLFNIVAILMTKLRASTTSETIQYRKAVKATLVLLPLLGITYMLFFVNPGEDEVSRVVFIYFNSFLESFQGFFVSVFYCFLNSEVRSAIRKRWHRWQDKHSIRARVARAMSIPTSPTRVSFHSIKQSTAV [R292A]
